Laboratory results from patent publication US20250333487A1 (CYTOMX THERAPEUTICS, published 2025).
Where no end group is shown, it is not given here. The star is where a group is joined. Biotin = O=C1N[C@H]2[C@H](CS[C@H]2CCCCC(=O)*)N1

Legend:
[1] = target: T1, biotinylated BC2 tag peptide QGQSGQPDRKAAVSHWQ; assay: BLI (ForteBio Octet), biotinylated peptide on SSA biosensor tips, 100 nM Nb
T1 construct: Synthesized at ELIM Biopharmaceuticals; loaded on SSA biosensor tips at 100 nM; also called free BC2T peptide; the peptide
T1 peptide: Biotin-QGQSGQPDRKAAVSHWQ
Procedure: (§1) Binding of the unmasked nanobody and single-anchored BC2T-Nb to free BC2T peptide was assessed by BLI using the ForteBio Octet device. While BLI is generally used to calculate association and dissociation kinetics of binding interactions, it was used herein to detect binding Peptide corresponding to the following sequence: […] (SEQ ID NO: 567) was synthesized at ELIM Biopharmaceuticals with a biotin at the N-terminus. The peptide was loaded on SSA biosensor tips (Pall/ForteBio Cat #18-5117) at 100 nM in Binding Buffer (BB: 1×PBS, pH 7.2, 5% glycerol, 0.1% Tween-20, 2% BSA) for 10 minutes. Baseline incubation in BB for 1 min before and after this capture step were used to confirm protein capture. The loaded tips were then incubated in 100 nM Nb in BB for 6 minutes followed by incubation in BB for 6 minutes. Changes in interference distance (nanometers) at the sensor tip are plotted against time to follow the binding/dissociation of soluble proteins from the immobilized ligand on the tip (FIG. 7).

[2] = target: T1, biotinylated BC2 tag peptide …; assay: BLI (ForteBio Octet), biotinylated peptide on SSA biosensor tips
Procedure: Intact ProC653 and ProC654 show no binding to the biotinylated BC2 tag peptide, but binding was recovered upon activation with either MMP14 or MMP9, respectively.
as §1

B1: ProC649 (PP073), single-domain antibody (nanobody) with no MM attached, with His tag (VHH)
VHH: QVQLVESGGGLVQPGGSLTLSCTASGFTLDHYDIGWFRQAPGKEREGVSCINNSDDDTYYADSVKGRFTIFMNNAKDTVYLQMNSLKPEDTAIYYCAEARGCKRGRYEYDFWGQGTQVTVSS
notes: Monomer; also called unmasked nanobody; unmasked control
binding result [1]: binds

B2: ProC653 (PP077), single-anchored BC2T-Nb: BC2 tag-1490DNI-Nanobody, intact (VHH)
chain: QGQSGQPDRKAAVSHWQQGGGSSGGSISSGLLSGRSDNIGGGSQVQLVESGGGLVQPGGSLTLSCTASGFTLDHYDIGWFRQAPGKEREGVSCINNSDDDTYYADSVKGRFTIFMNNAKDTVYLQMNSLKPEDTAIYYCAEARGCKRGRYEYDFWGQGTQVTVSSGGSHHHHHHHHHH
notes: Monomer, uncleaved (masked) form; also called single-domain antibody with MM attached with a CM 1490DNI
binding result [2]: no binding (tested: 100 nM)

B3: ProC654 (PP078), single-anchored BC2T-Nb: BC2 tag-PLGLAG-Nanobody, intact (VHH)
chain: QGQSGQPDRKAAVSHWQQGGGSSGGSPLGLAGGGGSQVQLVESGGGLVQPGGSLTLSCTASGFTLDHYDIGWFRQAPGKEREGVSCINNSDDDTYYADSVKGRFTIFMNNAKDTVYLQMNSLKPEDTAIYYCAEARGCKRGRYEYDFWGQGTQVTVSSGGSHHHHHHHHHH
notes: Monomer, uncleaved (masked) form; also called single-domain antibody with MM attached with a CM PLGLAG
binding result [2]: no binding (tested: 100 nM)
